Article PMC4518712, “Regulation of the PI3K pathway through a p85α monomer–homodimer equilibrium” (eLife, 2015)
Several values for one entry are separate records, joined by “and”; a condition that tells them apart may be missing. Identical values can stand only once.

What was measured:
Fyn SH3 (Homo sapiens) = Fyn SH3 (Homo sapiens) (UniProt P06241); conditions: cited from earlier work
[1] = molecular target: p85α SH3-PR1-BH-PR2 fragment (residues 1–333) (UniProt P27986); assay: MST; Alexa647-labelled protein at 20 nM, the same protein unlabelled titrated from 50,000 nM in 1:1 dilutions; 20 mM sodium phosphate pH 8, 150 mM NaCl, 2 mM EDTA, 5 mM DTT; dimerization
[2] = molecular target: p85α SH3-PR1-BH-PR2 fragment (residues 1–333) (UniProt P27986); assay: AUC; sedimentation equilibrium, 20°C, samples at 1.0, 0.5 and 0.25 mg/ml, 11.8, 12.8, 13.8 krpm; global fit to a monomer–dimer–tetramer model (p85α, 1–333) or a monomer–dimer model (PR1-BH); constant of dimerization (dimer to monomers); reducing conditions
class I PXXP peptide = conditions: cited from earlier work
[3] = molecular target: GST-ΔSH3 p85α (residues 86–742, comprising PR1 to cSH2); assay: ITC; MicroCal ITC200, 25°C, 10 mM sodium phosphate pH 7.5, 150 mM NaCl, 5 mM DTT; PR1 peptide injected into p85α SH3 (100 μM) in the cell, or SH3 (400 μM) in the syringe and GST-ΔSH3 p85α in the cell
[4] = molecular target: the molecule itself; assay: MST; Alexa647-labelled protein at 20 nM, the same protein unlabelled titrated from 50,000 nM in 1:1 dilutions; 20 mM sodium phosphate pH 8, 150 mM NaCl, 2 mM EDTA, 5 mM DTT; dimerization
[5] = molecular target: the molecule itself; assay: AUC; sedimentation equilibrium, 20°C, samples at 1.0, 0.5 and 0.25 mg/ml, 11.8, 12.8, 13.8 krpm; global fit to a monomer–dimer–tetramer model (p85α, 1–333) or a monomer–dimer model (PR1-BH); constant of dimerization (dimer to monomers); reducing conditions
p85α SH3 (residues 1–81) = molecular target: T1, p85α SH3 (residues 1–81) (UniProt P27986 1-81); assay: ITC; MicroCal ITC200, 25°C, 10 mM sodium phosphate pH 7.5, 150 mM NaCl, 5 mM DTT; PR1 peptide injected into p85α SH3 (100 μM) in the cell, or SH3 (400 μM) in the syringe and GST-ΔSH3 p85α in the cell; conditions: both partners purified
T1 construct: p85α residues 1–81; pET28b
T1 sequence (P27986 1-81): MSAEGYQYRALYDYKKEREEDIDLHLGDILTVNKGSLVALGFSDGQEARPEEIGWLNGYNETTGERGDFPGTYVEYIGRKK

Chain of Fyn SH3 (Homo sapiens) (P06241 79-146): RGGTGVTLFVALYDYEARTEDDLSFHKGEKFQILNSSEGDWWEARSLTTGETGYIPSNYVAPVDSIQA

In the case of p85α PR1 PR1 (from UniProt P27986), the Kd (Fyn SH3 (Homo sapiens)) is listed as 16 µM.

For “p85α SH3-PR1-BH-PR2 fragment (residues 1–333) (from UniProt P27986 1-333) (domain or fragment)”, the Kd [1] was 441 nM and the Kd [2] was 530 nM.

In the case of p85α SH3 SH3 (from UniProt P27986), the Kd (class I PXXP peptide) is given as 40 µM.

For “p85α SH3 (residues 1–81) (from UniProt P27986 1-81) (domain or fragment)”, the Kd [3] was 16.8 µM, the dH [3] was -13.4 kJ/mol and the stoichiometry N [3] was 0.8.

B1: p85α PR1-BH (residues 79–301) (domain or fragment, UniProt P27986 79-301, looked up)
chain: RKKISPPTPKPRPPRPLPVAPGSSKTEADVEQQALTLPDLAEQFAPPDIAPPLLIKLVEAIEKKGLECSTLYRTQSSSNLAELRQLLDCDTPSVDLEMIDVHVLADAFKRYLLDLPNPVIPAAVYSEMISLAPEVQSSEEYIQLLKKLIRSPSIPHQYWLTLQYLLKHFFKLSQTSSKNLLNARVLSEIFSPMLFRFSAASSDNTENLIKVIEILISTEWNER
modifications: Alexa647 label on the labelled copy (MST only)
notes: p85α residues 79–301; pET28b
In the case of B1, the Kd [4] is reported as 22.3 µM and 23 µM and the Kd [5] is reported as 163 µM.

B2: synthetic p85α PR1 peptide PKPRPPRPLPVAP (peptide)
peptide: PKPRPPRPLPVAP
notes: p85α PR1 region, begins at P87; source: synthetic peptide
With B2 the Kd (p85α SH3 (residues 1–81)) was 23.3 µM and 24 µM, the dH (p85α SH3 (residues 1–81)) was -4.9 kJ/mol and the “stoichiometry N” value (p85α SH3 (residues 1–81)) was 1.06.
